For one substance, stoichiometry N results are on record in article PMC10175771.

The assay has as its target P. falciparum cytochrome c-2 (PF3D7_1311700), recombinant, hemylated, N-terminal His6 tag (P. falciparum) (UniProt Q8I6T6). The experiment in a line: crystal structure.

Usually stoichiometry N stands for the number of molecules, sites or subunits per partner or assembly. As to “P. falciparum cytochrome c-2 (PF3D7_1311700), recombinant, hemylated, N-terminal His6 tag (from UniProt Q8I6T6 1-159) (natural protein)”, the stoichiometry N came to 2.
